Results from publication PMC10233464.

Target: Type V collagen from human placenta (human) (UniProt P20908)
Experiment: ELISA; type V collagen coated on 96-well plates (10 ug/ml in carbonate coating buffer, overnight 4 °C), blocked with 0.5 % BSA in TBS; about 1.0x10^8 whole bacteria per well, 1 h at 37 °C; adhered bacteria detected with anti-serotype a or anti-serotype b whole-cell polyclonal antibody and HRP secondary; activity normalised to a reference strain set at 100 %

Sequence of UniProt P20908 (P20908 38-1605, chain 1 of 2): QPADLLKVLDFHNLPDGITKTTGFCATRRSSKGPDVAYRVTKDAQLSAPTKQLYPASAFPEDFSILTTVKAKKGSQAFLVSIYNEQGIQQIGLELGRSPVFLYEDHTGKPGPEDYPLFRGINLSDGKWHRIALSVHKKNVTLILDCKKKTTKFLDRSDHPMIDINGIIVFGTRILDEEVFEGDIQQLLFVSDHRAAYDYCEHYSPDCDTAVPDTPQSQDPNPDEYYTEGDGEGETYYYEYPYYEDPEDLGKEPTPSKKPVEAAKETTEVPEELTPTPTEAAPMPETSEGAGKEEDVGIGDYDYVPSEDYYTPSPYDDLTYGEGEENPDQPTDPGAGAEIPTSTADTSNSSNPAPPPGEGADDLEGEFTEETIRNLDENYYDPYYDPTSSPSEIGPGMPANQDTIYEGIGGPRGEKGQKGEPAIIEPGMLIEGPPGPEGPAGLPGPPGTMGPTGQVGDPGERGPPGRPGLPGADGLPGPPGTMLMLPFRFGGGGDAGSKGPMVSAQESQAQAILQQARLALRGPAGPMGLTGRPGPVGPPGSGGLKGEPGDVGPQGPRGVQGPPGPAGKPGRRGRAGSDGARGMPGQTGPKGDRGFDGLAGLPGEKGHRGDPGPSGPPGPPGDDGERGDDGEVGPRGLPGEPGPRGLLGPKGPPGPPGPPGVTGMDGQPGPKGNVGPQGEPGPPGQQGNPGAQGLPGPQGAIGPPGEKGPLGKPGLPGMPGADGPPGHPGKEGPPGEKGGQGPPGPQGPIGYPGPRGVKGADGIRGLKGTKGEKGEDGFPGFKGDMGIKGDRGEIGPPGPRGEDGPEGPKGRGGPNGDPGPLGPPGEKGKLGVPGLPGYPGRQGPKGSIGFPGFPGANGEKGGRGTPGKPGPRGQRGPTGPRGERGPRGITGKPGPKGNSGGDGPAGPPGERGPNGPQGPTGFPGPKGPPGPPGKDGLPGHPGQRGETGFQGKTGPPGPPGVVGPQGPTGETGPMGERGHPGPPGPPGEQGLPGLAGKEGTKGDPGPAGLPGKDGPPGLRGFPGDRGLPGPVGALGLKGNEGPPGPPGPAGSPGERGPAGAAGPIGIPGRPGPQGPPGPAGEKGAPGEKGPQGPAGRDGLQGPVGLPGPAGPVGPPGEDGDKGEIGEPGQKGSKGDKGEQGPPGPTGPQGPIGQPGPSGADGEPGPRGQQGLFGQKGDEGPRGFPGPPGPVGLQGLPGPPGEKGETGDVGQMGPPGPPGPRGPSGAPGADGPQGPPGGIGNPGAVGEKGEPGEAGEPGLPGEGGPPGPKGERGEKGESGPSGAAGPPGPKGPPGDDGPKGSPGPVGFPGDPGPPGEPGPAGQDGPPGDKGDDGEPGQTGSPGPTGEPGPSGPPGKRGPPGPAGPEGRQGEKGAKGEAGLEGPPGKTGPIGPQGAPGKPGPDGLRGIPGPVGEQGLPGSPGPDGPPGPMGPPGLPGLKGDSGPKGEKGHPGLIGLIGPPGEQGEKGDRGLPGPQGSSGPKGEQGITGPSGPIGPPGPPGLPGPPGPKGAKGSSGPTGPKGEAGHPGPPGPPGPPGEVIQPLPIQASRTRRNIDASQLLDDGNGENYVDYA
Sequence of UniProt P20908 (P05997 27-1229, chain 2 of 2, further chain): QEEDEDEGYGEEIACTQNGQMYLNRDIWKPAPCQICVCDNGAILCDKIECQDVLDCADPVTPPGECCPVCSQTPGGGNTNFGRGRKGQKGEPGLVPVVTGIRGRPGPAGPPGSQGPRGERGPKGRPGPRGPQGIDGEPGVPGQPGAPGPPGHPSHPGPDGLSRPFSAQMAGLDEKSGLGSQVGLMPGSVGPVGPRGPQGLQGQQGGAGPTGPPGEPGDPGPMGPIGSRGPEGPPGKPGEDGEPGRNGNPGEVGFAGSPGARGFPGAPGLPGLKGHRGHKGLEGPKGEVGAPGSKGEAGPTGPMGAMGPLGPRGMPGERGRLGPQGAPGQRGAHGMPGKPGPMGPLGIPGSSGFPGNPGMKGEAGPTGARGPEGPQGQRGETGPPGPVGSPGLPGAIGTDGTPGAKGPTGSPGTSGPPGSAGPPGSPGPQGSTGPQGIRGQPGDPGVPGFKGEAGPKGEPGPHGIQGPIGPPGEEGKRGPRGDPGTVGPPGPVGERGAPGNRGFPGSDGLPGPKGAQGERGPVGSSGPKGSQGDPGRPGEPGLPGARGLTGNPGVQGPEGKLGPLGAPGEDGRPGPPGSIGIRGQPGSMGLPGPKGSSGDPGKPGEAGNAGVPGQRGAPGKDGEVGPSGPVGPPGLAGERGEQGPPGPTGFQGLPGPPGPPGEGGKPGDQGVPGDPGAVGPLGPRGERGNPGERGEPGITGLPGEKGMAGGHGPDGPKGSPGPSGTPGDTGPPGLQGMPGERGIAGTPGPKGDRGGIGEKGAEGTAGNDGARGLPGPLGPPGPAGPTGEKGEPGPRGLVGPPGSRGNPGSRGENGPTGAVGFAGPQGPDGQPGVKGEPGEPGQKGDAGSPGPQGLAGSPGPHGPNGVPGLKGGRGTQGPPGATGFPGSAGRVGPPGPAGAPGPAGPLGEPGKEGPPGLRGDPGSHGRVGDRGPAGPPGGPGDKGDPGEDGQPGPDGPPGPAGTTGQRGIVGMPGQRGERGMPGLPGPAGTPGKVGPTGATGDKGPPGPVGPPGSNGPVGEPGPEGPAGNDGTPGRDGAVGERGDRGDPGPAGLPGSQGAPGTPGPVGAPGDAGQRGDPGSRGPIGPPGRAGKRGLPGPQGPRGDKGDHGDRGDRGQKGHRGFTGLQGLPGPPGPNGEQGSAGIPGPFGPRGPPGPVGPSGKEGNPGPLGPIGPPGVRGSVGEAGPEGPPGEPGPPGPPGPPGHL

a-EmaA (extracellular matrix protein adhesin A, 173 kDa isoform of serotype a) expressed from pKM753 in strain ATCC 29523 (natural protein)
fold increase in collagen binding over the emaA mutant strain ATCC 29523: > 2 fold

a-EmaA expressed from a plasmid in the serotype b O-PS-deficient rmlC mutant strain (natural protein)
fold increase in collagen binding over the rmlC mutant strain: 4.6 fold | fold of the collagen binding of the serotype b wild-type strain: > 2 fold
